From patent publication US7164008B2, “Isolated complexes of endotoxin and MD-2” (priority 2003, dated 2007)

Tests used:
TLR4 = target: T1, TLR4 (Homo sapiens, UniProt O00206+Q9Y6Y9); test: Cell association of [^3H]-LOS forms with HEK/TLR4 cells (liquid scintillation); assay type: cell-based; settings: [^3H]-LOS-MD-2 0.75 ng/ml, HEK/TLR4 overnight
T1 construct: host or cells: HEK293 stably transfected with TLR4 (HEK/TLR4)
Procedure: FIG. 3 depicts delivery of [^3H]-LOS-MD-2 but not [^3H]-LOSagg or [^3H]-LOS-sCD14 to HEK/TLR4. HEK (□) or HEK/TLR4 (▪) cells were incubated with [^3H]-LOS (0.75 ng/ml) in the form of LOSagg, LOS-sCD14, or LOS-MD-2. After overnight incubation at 37° C., cells were washed and lysed as described in Methods. The amount of [^3H]-LOS associated with the cells was measured by liquid scintillation spectroscopy. Results are from one experiment in duplicate, representative of three similar experiments.
FIG. 4 depicts the effects of added MD-2 on activation of HEK/TLR4 by [^3H]-LOS-MD-2 and delivery of [^3H]-LOS-MD-2 to HEK/TLR4. […] After overnight incubation, extracellular accumulation of IL-8 was measured. […] Column fractions were analyzed for [^14C]-LOS by liquid scintillation spectroscopy. […] The amount of radioactivity associated with the cells was determined by liquid scintillation spectroscopy. No radioactivity was associated with parental cells.
HEK or HEK/TLR4 cells were grown to confluency in 6 well plates, washed twice with warm PBS, and [^3H]-LOS aggregates or [^3H]-LOS-protein complexes+/−indicated supplements were incubated overnight at 37° C., 5% CO2, and 95% humidity in DMEM, 0.1% HSA with the supplements indicated in the legends to FIGS. 3 and 4. […] The amount of radioactivity associated with the cells was determined by liquid scintillation spectroscopy. Total recovery of radioactivity was >90%.

MD-2 = test: Formation of [^14C]-LOS-MD-2 complex monitored by gel filtration chromatography; assay type: binding, human; settings: 30 min, 37° C., Sephacryl S100
Procedure: In FIG. 2, a bioactive complex (Mr˜25,000) containing MD-2 and [^14C]-LOS is formed by incubation of [^14C]-LOS-sCD14 with wt, but not C95Y, MD-2. In FIG. 2A, dialyzed control insect cell medium (◯) or medium containing wt (♦) or C95Y ( ? ) MD-2 was incubated for 30 min, 37° C. with (1:1 vol/vol) [^14C]-LOS-sCD14 in HBSS+, 10 mM HEPES and chromatographed on Sephacryl S100. Column fractions were analyzed for [^14C]-LOS. Identical results were obtained in analytical (5 ng [^14C]-LOS/ml+200 μl culture medium) or more preparative runs (reagents concentrated 20×). […] Cell activation was measured by IL-8 accumulation. […]
Purified [^14C]-LOSagg or [^14C]-LOS-sCD14 (3 ng LOS/ml)+/−indicated proteins (30 ng/ml LBP, 250 ng/ml sCD14, 60 μl culture medium) were incubated at 37° C. for 30 min. After this incubation, samples were analyzed by gel filtration chromatography to monitor formation of [^14C]-LOS-MD-2 and by incubation with HEK/TLR4 cells to measure cell activation.
Columns of Sephacryl HR S200 (1.6 cm×30 cm) or S100 (1.0 cm×60 cm) were pre-equilibrated in 10 mM HEPES, HBSS^++/−0.1% HSA. […] Aliquots of the collected fractions were analyzed by liquid scintillation spectroscopy using a Beckman LS liquid scintillation counter to detect [^14C]-LOS. […]

T1 sequence (O00206 24-839, one chain of several): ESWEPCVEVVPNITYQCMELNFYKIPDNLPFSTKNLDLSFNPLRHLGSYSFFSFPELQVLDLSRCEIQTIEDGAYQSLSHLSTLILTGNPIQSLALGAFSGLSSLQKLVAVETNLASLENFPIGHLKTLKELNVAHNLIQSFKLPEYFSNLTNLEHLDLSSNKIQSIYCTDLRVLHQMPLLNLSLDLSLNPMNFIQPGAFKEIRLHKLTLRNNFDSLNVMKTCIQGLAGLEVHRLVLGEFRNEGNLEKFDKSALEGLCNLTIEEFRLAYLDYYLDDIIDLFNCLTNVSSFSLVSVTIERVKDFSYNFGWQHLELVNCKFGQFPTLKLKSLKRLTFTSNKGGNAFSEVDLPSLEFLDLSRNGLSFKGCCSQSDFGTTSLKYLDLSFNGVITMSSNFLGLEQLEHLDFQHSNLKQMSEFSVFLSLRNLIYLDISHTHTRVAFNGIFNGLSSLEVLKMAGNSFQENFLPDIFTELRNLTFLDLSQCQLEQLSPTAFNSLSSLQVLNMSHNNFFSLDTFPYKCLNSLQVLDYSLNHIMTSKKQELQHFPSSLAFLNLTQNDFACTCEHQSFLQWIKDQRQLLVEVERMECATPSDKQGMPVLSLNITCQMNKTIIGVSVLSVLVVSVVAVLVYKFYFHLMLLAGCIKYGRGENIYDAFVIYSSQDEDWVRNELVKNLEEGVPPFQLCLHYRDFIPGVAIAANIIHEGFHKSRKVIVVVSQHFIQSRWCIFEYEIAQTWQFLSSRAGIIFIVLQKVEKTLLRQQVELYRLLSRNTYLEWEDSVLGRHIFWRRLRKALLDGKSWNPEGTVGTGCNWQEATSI

B1: wt MD-2: soluble polyhistidine-tagged recombinant wild-type MD-2 in conditioned insect cell culture medium (protein)
chain: QKQYWVCNSSDASISYTYCDKMQYPISINVNPCIELKRSKGLLHIFYIPRRDLKQLYFNLYITVNTMNLPKRKEVICRGSDDDYSFCRALKGETVNTTISFSFKGIKFSKGKYKCVVEAISGSPEEMLFCLEFVILHQPNSNHHHHHH
effect of excess MD-2 on TLR4-dependent cell association of [^3H]-LOS-MD-2 (TLR4): blocked
reaction with [^14C]-LOS-sCD14 to generate new Mr˜25,000 [^14C]-LOS-containing complex (MD-2): efficiently generated
